This passage reports Kd results from publication PMC10907630.

Common to all, as to assay: EMSA
In general terms: Mobility shift assays separate free from complexed probe on a gel.

The subject of series [1] is tau 1N4R, P10636-7. As to conditions: Hill fit, EMSA: 20 nM DNA or nucleosome, 20 mM HEPES pH 7.2, 10 mM NaCl (or 150), 0.5 mM TCEP, 0.1% Tween-20, 5% sucrose, room temperature 20 min, FA: 10 nM DNA, same ….
The test system of series [2] is PG-ptau (tau 1N4R phosphorylated by PKA and GSK-3β), P10636-7. The settings on record: EMSA: 20 nM DNA or nucleosome, 20 mM HEPES pH 7.2, 10 mM NaCl (or 150), 0.5 mM TCEP, 0.1% Tween-20, 5% sucrose, room temperature 20 min, FA: 10 nM DNA, same ….
Chain of PG-ptau (tau 1N4R phosphorylated by PKA and GSK-3β), P10636-7 (P10636 other isoform, or with tags, fused parts or gaps): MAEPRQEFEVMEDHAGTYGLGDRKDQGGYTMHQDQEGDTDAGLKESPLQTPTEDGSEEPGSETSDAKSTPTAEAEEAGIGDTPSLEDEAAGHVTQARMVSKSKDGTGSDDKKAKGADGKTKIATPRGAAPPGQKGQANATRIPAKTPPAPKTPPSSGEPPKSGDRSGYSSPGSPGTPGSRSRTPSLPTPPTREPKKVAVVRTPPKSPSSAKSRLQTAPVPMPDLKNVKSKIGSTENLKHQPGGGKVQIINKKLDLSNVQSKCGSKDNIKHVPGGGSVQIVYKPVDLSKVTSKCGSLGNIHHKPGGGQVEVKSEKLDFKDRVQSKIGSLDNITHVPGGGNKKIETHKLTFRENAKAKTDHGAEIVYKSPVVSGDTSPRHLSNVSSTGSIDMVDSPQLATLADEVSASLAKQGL
In series [3] the test system is tau ΔPRD-DBR (1N4R) del191-211, P10636-7. As to conditions: EMSA: 20 nM DNA or nucleosome, 20 mM HEPES pH 7.2, 10 mM NaCl (or 150), 0.5 mM TCEP, 0.1% Tween-20, 5% sucrose, room temperature 20 min; FA: 10 nM DNA, same ….
Chain of tau ΔPRD-DBR (1N4R) del191-211, P10636-7 (P10636 other isoform, or with tags, fused parts or gaps mutant): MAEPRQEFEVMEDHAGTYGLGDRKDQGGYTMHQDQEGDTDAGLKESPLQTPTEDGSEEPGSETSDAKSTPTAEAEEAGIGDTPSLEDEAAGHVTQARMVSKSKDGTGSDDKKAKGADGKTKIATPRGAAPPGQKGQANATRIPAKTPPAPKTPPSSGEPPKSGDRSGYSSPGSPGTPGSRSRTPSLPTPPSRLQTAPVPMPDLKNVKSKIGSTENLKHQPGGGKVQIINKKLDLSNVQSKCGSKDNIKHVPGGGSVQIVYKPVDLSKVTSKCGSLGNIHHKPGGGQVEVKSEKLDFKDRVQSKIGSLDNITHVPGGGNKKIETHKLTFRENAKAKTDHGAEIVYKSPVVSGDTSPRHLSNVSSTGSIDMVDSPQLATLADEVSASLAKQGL

Broadly, the Kd is the equilibrium constant for the complex coming apart. The low end stands for higher affinity, the high end for lower affinity.

Chain of tau 1N4R, P10636-7 (P10636 other isoform, or with tags, fused parts or gaps): as the sequence (P10636 other isoform, or with tags, fused parts or gaps) above

In the case of “ACTACGCGGCCGCCCTGGAGAATCCCGGTGCCGAGGCCGCTCAATTGGTCGTAGACAGCTCTAGCACCGCTTAAACGCACGTACGCGCTGTCCCCCGCGTTTTAACCGCCAAGGGGATTACTCCCTAGTCTCCAGGCACGTGTCAGATATATACATCCTGTGCATGTAAGATCCAGT (double strand) [177 bp mononucleosome]”, the Kd in series [1] (10 mM NaCl) was 106 nM; in series [2], 166 nM.
As for “ACTACGCGGCCGCCCTGGAGAATCCCGGTGCCGAGGCCGCTCAATTGGTCGTAGACAGCTCTAGCACCGCTTAAACGCACGTACGCGCTGTCCCCCGCGTTTTAACCGCCAAGGGGATTACTCCCTAGTCTCCAGGCACGTGTCAGATATATACATCCTGTGCATGTAAGATCCAGT (double strand) [177 bp DNA (601)]”, the Kd was found to be 135 nM in series [1] (10 mM NaCl); 188 nM in series [1] (150 mM NaCl); 410 nM in series [3]; 426 nM in series [2] (150 mM NaCl (Fig. S12 legend says 10 mM)); 241 nM in series [2].
In series [1] (10 mM NaCl), “CTGGAGAATCCCGGTGCCGAGGCCGCTCAATTGGTCGTAGACAGCTCTAGCACCGCTTAAACGCACGTACGCGCTGTCCCCCGCGTTTTAACCGCCAAGGGGATTACTCCCTAGTCTCCAGGCACGTGTCAGATATATACATCCTGT (double strand) [147 bp mononucleosome (linker-free)]” had a Kd of 83.4 nM.
